From PMC5414002 (mBio, 2017)

Target: the molecule itself
Assay: cryo-EM structure; EcFtsZ filaments, 0.5 mg/ml in 50 mM HEPES-KOH, 100 mM potassium acetate, 5 mM magnesium acetate, pH 7.7, 20°C, 0.1 mM GMPCPP; helical reconstruction in RELION

B1: Full-length, untagged wild-type Escherichia coli FtsZ (natural protein, UniProt P0A9A6 1-383, looked up)
chain: MFEPMELTNDAVIKVIGVGGGGGNAVEHMVRERIEGVEFFAVNTDAQALRKTAVGQTIQIGSGITKGLGAGANPEVGRNAADEDRDALRAALEGADMVFIAAGMGGGTGTGAAPVVAEVAKDLGILTVAVVTKPFNFEGKKRMAFAEQGITELSKHVDSLITIPNDKLLKVLGRGISLLDAFGAANDVLKGAVQGIAELITRPGLMNVDFADVRTVMSEMGYAMMGSGVASGEDRAEEAAEMAISSPLLEDIDLSGARGVLVNITAGFDLRLDEFETVGNTIRAFASDNATVVIGTSLDPDMNDELRVTVVATGIGMDKRPEITLVTNKQVQQPVMDRYQQHGMAPLTQEQKPVAKVVNDNAPQTAKEPDYLDIPAFLRKQAD
notes: also called EcFtsZ; source: E. coli C41(DE3), purified (GTP- and calcium-induced precipitation, anion exchange)
binding result: binds
